Results reported in article PMC2834670.

Target: T1, MleR (Streptococcus mutans UA159?) (UniProt Q8DWC9)
T1 sequence: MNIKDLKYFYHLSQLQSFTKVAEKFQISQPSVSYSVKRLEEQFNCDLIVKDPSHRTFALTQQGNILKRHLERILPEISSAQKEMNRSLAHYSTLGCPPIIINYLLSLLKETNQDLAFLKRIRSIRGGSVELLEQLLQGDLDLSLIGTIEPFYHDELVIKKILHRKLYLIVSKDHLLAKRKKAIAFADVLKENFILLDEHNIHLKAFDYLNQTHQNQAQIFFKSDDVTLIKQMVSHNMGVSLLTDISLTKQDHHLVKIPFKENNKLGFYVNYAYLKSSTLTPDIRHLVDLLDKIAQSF
Test: EMSA
Settings: 20 mM Tris pH 7.5, 100 mM KCl, 2 mM EDTA, 10% glycerol, ~100 ng MleR, equal amount of competitor DNA (EP10/11 at 75 ng/ul), 20 min ambient temperature; 4.5% …

Which binding does the source give for “GGTATCTTTGCGGCTATGGATATCACAGGTGAAAAATTGACTGATCAAGTCTATCTCTGTTACGGTGGCGGTACAGCAGGTGCGGGTATTGCCTCTCGTGTCTTGCGTGAAA (double strand) [internal mleS fragment (137qF/R)]” here?
The binding was “no binding”.
